Measured values: patent US9549967B2, “Regulation of sodium channels by PLUNC proteins” (The University of North Carolina at Chapel Hill, priority 2009, dated 2017)

How the values were obtained:
[1] = biological target: T1, ENaC containing the βS518C mutant (Rattus norvegicus, UniProt P37089+P37090+P37091, S518C); assay: Oocyte current of ENaC containing the βS518C mutant with MTSET; format: cell-based; settings: addition of MTSET
T1 construct: expressed in transfected cells; host or cells: Xenopus oocytes
T1 sequence (P37089 1-698): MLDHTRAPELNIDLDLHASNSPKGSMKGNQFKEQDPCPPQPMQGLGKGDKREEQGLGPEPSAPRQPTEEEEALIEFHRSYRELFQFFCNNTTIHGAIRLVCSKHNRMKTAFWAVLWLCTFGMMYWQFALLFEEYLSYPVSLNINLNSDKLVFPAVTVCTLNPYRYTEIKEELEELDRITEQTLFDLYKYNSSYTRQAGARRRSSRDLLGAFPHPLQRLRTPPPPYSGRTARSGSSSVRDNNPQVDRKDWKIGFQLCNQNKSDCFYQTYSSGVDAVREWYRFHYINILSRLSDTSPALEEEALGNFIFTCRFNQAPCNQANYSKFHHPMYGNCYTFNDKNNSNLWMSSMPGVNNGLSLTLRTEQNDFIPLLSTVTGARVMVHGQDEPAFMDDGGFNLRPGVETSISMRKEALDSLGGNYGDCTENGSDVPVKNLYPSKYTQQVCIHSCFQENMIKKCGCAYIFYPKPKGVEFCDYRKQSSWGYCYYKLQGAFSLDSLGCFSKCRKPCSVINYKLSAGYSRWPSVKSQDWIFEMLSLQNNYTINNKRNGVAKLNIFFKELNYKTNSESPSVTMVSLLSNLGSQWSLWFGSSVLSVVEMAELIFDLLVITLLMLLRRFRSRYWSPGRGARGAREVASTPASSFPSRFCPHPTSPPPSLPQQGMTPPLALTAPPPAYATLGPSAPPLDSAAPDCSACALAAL
T1 sequence (P37090 1-638 S518C): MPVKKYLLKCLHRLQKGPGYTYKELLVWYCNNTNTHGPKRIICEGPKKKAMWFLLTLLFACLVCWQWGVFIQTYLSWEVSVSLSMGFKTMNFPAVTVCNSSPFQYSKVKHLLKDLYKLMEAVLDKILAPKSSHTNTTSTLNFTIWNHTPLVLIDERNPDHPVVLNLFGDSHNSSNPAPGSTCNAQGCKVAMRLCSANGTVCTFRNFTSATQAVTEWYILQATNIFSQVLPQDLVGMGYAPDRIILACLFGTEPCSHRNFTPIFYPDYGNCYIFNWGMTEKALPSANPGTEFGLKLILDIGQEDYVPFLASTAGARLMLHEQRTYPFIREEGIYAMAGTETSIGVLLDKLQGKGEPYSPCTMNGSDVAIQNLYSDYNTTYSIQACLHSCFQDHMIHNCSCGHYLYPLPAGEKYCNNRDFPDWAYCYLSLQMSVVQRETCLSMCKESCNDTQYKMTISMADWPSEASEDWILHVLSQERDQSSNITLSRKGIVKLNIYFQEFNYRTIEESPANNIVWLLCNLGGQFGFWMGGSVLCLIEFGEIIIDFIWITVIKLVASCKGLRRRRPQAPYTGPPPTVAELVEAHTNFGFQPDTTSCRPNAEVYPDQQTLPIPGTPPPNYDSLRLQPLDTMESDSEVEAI
T1 sequence (P37091 1-650): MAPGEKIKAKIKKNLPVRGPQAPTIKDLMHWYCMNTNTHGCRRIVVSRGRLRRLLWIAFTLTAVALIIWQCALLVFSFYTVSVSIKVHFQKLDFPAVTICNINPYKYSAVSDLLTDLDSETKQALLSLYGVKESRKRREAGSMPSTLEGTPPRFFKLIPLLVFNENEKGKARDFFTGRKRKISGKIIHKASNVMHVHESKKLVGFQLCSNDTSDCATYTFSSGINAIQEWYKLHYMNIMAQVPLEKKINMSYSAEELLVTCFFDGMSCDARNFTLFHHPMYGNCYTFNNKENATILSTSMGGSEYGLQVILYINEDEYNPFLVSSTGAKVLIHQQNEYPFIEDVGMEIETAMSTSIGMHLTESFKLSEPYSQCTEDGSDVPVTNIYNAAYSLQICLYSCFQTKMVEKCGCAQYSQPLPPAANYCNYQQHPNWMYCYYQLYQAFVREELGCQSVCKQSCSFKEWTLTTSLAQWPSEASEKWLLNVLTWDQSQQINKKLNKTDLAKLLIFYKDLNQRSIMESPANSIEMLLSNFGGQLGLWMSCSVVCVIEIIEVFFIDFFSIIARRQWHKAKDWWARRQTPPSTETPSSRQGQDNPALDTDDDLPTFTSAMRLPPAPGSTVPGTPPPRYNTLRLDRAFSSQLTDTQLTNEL
Method: Oocyte studies. Xenopus laevis oocytes were harvested and injected as described (Donaldson, et al., J. Biol. Chem. 277:8338 (2002)). Defolliculated healthy stage V-VI oocytes were injected with 0.3 ng of cRNA of each ENaC subunit. Injected oocytes were kept in modified Barth's saline (in mM: 88 NaCl, 1 KCl, 2.4 NaHCO3, 0.3 Ca(NO3)2, 0.41 CaCl2, 0.82 MgSO4, and 15 HEPES, adjusted to pH 7.35 with Tris). Oocytes were studied 24 hr after injection using the two electrode voltage clamp technique as previously described (Donaldson, et al., J. Biol. Chem. 277:8338 (2002)). Oocytes were clamped at a holding potential of […]. The change in amiloride-sensitive whole cell current as an indicator of ENaC activity was determined by subtracting the corresponding current value measured in the presence of 10 μM amiloride from that measured before the application of amiloride.
The effect of SPLUNC1 on the number of ENaC channels in the plasma membrane was tested by expressing SPLUNC1 and αENaC in Xenopus oocytes. After surface biotinylation of αENaC, total lysate was prepared and lysate from 3-4 eggs was separated on a 10% gel.

[2] = biological target: yfp-tagged αENaC stably expressed on JME nasal epithelial cells; assay: fluorescence binding isotherm on polarized JME cells expressing yfp-αENaC, empty-vector cells as non-specific control, Hill fit
[3] = system: T2, Recombinant SPLUNC1 (V5/6His-tagged, purified from HEK293 media)
T2 sequence: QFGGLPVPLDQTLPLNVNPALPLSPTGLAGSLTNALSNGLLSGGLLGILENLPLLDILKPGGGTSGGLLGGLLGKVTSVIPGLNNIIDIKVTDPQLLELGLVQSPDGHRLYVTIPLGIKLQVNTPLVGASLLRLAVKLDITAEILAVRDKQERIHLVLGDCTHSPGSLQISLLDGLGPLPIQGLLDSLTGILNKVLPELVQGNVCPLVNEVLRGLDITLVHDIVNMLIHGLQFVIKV

[4] = biological target: ENaC endogenous to primary human bronchial epithelial cultures (human) (UniProt P37088); assay: cell-based or functional assay
[5] = biological target: αβγENaC expressed in Xenopus laevis oocytes (rat) (UniProt P37089); assay: cell-based or functional assay
[6] = biological target: αβγENaC expressed in Xenopus laevis oocytes (rat, UniProt P37089 1-698; P37090 1-638; P37091 1-650); assay: cell-based or functional assay

ENaC endogenous to primary human bronchial epithelial cultures (human), sequence (P37088 whole entry, chain 1 of 3): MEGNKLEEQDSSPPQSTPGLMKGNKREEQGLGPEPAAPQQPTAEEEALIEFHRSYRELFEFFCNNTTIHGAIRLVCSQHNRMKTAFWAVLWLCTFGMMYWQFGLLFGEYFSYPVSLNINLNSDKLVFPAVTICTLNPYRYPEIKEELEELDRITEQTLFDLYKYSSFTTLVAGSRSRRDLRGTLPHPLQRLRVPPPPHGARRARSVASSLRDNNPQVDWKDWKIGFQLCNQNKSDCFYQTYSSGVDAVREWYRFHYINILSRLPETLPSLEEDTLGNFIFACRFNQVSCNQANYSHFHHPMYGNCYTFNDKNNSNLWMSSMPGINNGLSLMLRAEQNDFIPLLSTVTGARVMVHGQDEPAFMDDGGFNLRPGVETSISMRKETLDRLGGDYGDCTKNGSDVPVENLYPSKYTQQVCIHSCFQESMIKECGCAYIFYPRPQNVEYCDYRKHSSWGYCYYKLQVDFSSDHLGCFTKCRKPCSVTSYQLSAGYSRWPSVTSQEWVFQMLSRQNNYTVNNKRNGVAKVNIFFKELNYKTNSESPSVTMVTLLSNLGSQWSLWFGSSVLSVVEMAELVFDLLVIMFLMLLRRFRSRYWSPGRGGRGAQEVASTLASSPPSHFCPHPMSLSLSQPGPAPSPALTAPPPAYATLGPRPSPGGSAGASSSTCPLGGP
ENaC endogenous to primary human bronchial epithelial cultures (human), sequence (P51168 whole entry, chain 2 of 3, further chain): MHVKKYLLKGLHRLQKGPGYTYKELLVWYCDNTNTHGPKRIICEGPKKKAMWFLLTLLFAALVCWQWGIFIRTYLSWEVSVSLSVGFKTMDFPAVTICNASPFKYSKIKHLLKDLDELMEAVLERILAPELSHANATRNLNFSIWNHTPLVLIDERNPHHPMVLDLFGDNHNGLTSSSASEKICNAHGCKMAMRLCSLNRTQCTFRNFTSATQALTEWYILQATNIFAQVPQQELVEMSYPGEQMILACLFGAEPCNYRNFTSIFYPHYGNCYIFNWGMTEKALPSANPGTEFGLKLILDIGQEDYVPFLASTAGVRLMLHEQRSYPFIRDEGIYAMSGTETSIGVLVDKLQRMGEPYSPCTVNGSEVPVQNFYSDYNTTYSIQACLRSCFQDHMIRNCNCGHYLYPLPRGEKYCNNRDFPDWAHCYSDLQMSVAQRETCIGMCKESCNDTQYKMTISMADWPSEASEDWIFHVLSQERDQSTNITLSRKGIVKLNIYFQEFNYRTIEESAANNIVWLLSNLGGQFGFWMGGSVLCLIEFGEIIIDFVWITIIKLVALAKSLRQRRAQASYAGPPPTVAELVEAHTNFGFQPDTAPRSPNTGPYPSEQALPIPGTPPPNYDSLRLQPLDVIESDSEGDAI
ENaC endogenous to primary human bronchial epithelial cultures (human), sequence (P51170 whole entry, chain 3 of 3, further chain): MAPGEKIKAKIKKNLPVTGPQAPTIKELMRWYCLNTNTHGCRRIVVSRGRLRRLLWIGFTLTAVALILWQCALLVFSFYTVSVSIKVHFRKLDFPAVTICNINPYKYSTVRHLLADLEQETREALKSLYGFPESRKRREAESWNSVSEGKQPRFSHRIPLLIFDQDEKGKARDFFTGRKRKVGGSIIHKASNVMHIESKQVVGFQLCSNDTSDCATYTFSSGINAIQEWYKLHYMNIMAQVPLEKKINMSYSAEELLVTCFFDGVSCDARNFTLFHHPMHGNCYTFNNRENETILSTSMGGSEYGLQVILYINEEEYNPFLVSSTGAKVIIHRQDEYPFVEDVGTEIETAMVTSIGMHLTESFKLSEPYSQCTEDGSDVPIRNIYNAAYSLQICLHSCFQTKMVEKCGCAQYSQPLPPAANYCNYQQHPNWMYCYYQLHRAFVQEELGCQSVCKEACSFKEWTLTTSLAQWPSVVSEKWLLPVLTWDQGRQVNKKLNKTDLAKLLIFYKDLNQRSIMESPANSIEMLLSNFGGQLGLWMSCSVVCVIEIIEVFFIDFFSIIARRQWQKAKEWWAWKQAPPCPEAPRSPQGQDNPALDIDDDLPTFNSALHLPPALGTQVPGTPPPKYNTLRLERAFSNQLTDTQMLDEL
yfp-tagged αENaC stably expressed on JME nasal epithelial cells, sequence (P37088 whole entry): as the sequence (P37088 whole entry, chain 1 of 3) above

Molecule: C[N+](C)(C)CCSS(C)(=O)=O.[Br-] [MTSET, reference compound]
- ENaC Po [1]: 1.0

Molecule: Texas red-labeled recombinant SPLUNC1 (from UniProt Q9NP55 20-256)
- Kd [2]: 0.055 µg/mL

Molecule: trypsin
- cleavage of fluorogenic substrate BGAR-MCA by 1.0 or 0.3 U/ml trypsin [3]: 50 ng/ml rSPLUNC1 had only a modest affect (˜10%) on the ability of either 1.0 or 0.3 U/ml trypsin to cleave a fluorogenic substrate

Molecule: Recombinant SPLUNC1 (V5/6His-tagged, purified from HEK293 media) (from UniProt Q9NP55 20-256)
- ENaC inhibition [4]: 70%
- transepithelial electrical resistance [4]: 33%
- decrease in ENaC currents (amiloride-sensitive whole cell current, oocytes) [5]: 70%

B1: V5-tagged SPLUNC1 expressed in Xenopus oocytes (other, not shown: small tags and cut ends)
chain: QFGGLPVPLDQTLPLNVNPALPLSPTGLAGSLTNALSNGLLSGGLLGILENLPLLDILKPGGGTSGGLLGGLLGKVTSVIPGLNNIIDIKVTDPQLLELGLVQSPDGHRLYVTIPLGIKLQVNTPLVGASLLRLAVKLDITAEILAVRDKQERIHLVLGDCTHSPGSLQISLLDGLGPLPIQGLLDSLTGILNKVLPELVQGNVCPLVNEVLRGLDITLVHDIVNMLIHGLQFVIKV
- decrease in amiloride-sensitive ENaC current relative to control oocytes [6]: ~70%
